According to US20260167721A1 (ABLEXIS, published 2026):

B1: CD3 × CD33-BspAb123 (bispecific antibody)
chain 1: QTVVTQEPSFSVSPGGTVTLTCGLNSGSVSTSYYPSWYQQTPGQTPRTLIYSTNTRSSGVPDRFSGSILGNKAALTITGAQADDESDYYCVLYMGSGIWVFGCGTKLTVLGGGGSGGGGSGGGGSGGGGSQVQLVQSGAEVKKPGASLKVSCKASGYTFTSYYMHWVRQAPGQCLEWMGIINPSNGNTISAQKFQGRVTMTRDTSTSTVYMEMSSLRSEDTAVYYCVRSWGYYVMDVWGQGTTVTVSSDKTHTCPPCPAPEFEGGPSVFLFPPKPKDTLMISRTPEVTCVVVDVSHEDPEVKFNWYVDGVEVHNAKTKPREEQYNSTYRVVSVLTVLHQDWLNGKEYKCKVSNKALPASIEKTISKAKGQPREPQVYTLPPCREEMTKNQVSLWCLVKGFYPSDIAVEWESNGQPENNYKTTPPVLDSDGSFFLYSKLTVDKSRWQQGNVFSCSVMHEALHNHYTQKSLSLSPGK
chain 2: EVQLVQSGAEVKKPGSSVKVSCKASGYTITDSNIHWVRQAPGQSLEWIGYIYPYNGGTDYNQKFKNRATLTVDNPTNTAYMELSSLRSEDTAFYYCVNGNPWLAYWGQGTLVTVSSASTKGPSVFPLAPSSKSTSGGTAALGCLVKDYFPEPVTVSWNSGALTSGVHTFPAVLQSSGLYSLSSVVTVPSSSLGTQTYICNVNHKPSNTKVDKRVEPKSCDKTHTCPPCPAPEFEGGPSVFLFPPKPKDTLMISRTPEVTCVVVDVSHEDPEVKFNWYVDGVEVHNAKTKPREEQYNSTYRVVSVLTVLHQDWLNGKEYKCKVSNKALPASIEKTISKAKGQPREPQVCTLPPSREEMTKNQVSLSCAVKGFYPSDIAVEWESNGQPENNYKTTPPVLDSDGSFFLVSKLTVDKSRWQQGNVFSCSVMHEALHNRFTQKSLSLSPGK
chain 3: DIQLTQSPSTLSASVGDRVTITCRASESLDNYGIRFLTWFQQKPGKAPKLLMYAASNQGSGVPSRFSGSGSGTEFTLTISSLQPDDFATYYCQQTKEVPWSFGQGTKVEVKRTVAAPSVFIFPPSDEQLKSGTASVVCLLNNFYPREAKVQWKVDNALQSGNSQESVTEQDSKDSTYSLSSTLTLSKADYEKHKVYACEVTHQGLSSPVTKSFNRGEC
B2: CD3 × CD33-BspAb68 (bispecific antibody)
scFv-Fc: EVQLVESGGGLVKPGGSLRLSCSASGFTFSTYTMNWVRQAPGKCLEWVSSISKSSSYIYYTDSVKGRFTISRDNAKNSLYLQMNSLRAEDTAVYYCARERRTLAFDIWGQGTMVTVSSGGGGSGGGGSGGGGSGGGGSNFMLTQPHSVSESPGKTVTISCTRSSGSIASNYVQWYQQRPGSSPTTVIYEDNQRSSGVPDRFSGSIDSSSNSASLTISGLKTEDEADYYCQSYDRSNRVFGCGTKLTVLGGGGSDKTHTCPPCPAPEFEGGPSVFLFPPKPKDTLMISRTPEVTCVVVDVSHEDPEVKFNWYVDGVEVHNAKTKPREEQYNSTYRVVSVLTVLHQDWLNGKEYKCKVSNKALPASIEKTISKAKGQPREPQVYTLPPCREEMTKNQVSLWCLVKGFYPSDIAVEWESNGQPENNYKTTPPVLDSDGSFFLYSKLTVDKSRWQQGNVFSCSVMHEALHNHYTQKSLSLSPGK
heavy: B1 chain 2
light: B1 chain 3
notes: KiH heterodimer
B3: CD3 × CD33-BspAb124 (bispecific antibody)
chain 1: not shown
chain 2: B1 chain 2
chain 3: B1 chain 3
B4: CD3 × CD33-BspAb125 (bispecific antibody)
chain 1: not shown
chain 2: B1 chain 2
chain 3: B1 chain 3

The binders below were run against T1, human CD3 (TCR/CD3 complex on the cell surface) (human, UniProt P07766 23-207; P04234 22-171; P09693 23-182) (assay: flow cytometry, Pan-T cells, 1 ug/mL).
T1 construct: whole, on cells; Native CD3 on human Pan-T cells or Jurkat wild-type cells; also called CD3 on Pan-T cells; CD3 on Jurkat WT cells
T1 sequence (P07766 23-207, chain 1 of 3): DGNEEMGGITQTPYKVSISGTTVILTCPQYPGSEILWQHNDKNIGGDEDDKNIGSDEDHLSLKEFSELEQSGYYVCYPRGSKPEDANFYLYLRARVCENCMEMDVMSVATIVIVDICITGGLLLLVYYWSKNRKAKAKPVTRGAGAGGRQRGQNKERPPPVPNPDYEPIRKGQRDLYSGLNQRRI
T1 sequence (P04234 22-171, chain 2 of 3): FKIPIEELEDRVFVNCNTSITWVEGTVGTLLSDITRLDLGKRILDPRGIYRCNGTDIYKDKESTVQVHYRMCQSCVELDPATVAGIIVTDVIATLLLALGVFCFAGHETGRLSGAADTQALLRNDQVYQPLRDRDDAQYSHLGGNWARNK
T1 sequence (P09693 23-182, chain 3 of 3): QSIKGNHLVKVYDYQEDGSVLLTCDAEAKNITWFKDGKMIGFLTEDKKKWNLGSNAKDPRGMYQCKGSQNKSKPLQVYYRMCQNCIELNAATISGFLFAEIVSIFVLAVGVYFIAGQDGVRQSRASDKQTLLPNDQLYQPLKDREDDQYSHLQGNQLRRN

% Positive [%]	gMFI [gMFI]	Binder
1.8	1860	B1
100	539000	B2
1.5	1950	B3
42.2	6020	B4

Each binder was assayed against T1, human CD3 (TCR/CD3 complex on the cell …) (assay: flow cytometry, Pan-T cells, 10 ug/mL).

% Positive [%]	gMFI [gMFI]	Binder
1.4	1920	B1
99.9	601000	B2
1	1970	B3
95.4	28700	B4

These binders were tested against T1, human CD3 (TCR/CD3 complex on the cell …) (assay: flow cytometry, Jurkat WT cells, 1 ug/mL).

gMFI [gMFI]	Binder
1680	B1
58000	B2
1800	B3
3680	B4

The binders below were run against T1, human CD3 (TCR/CD3 complex on the cell …) (assay: flow cytometry, Jurkat WT cells, 10 ug/mL).

gMFI [gMFI]	Binder
1710	B1
63600	B2
1790	B3
13700	B4

Each binder was assayed against T1, human CD3 (TCR/CD3 complex on the cell …) (assay: flow cytometry, Jurkat WT gMFI over Jurkat KO gMFI, 1 ug/mL).

Jurkat WT/KO (Fold) [fold]	Binder
0.9	B1
12.9	B2
0.9	B3
1.5	B4

These binders were tested against T1, human CD3 (TCR/CD3 complex on the cell …) (assay: flow cytometry, Jurkat WT gMFI over Jurkat KO gMFI, 10 ug/mL).

Jurkat WT/KO (Fold) [fold]	Binder
0.8	B1
13.6	B2
0.9	B3
5.3	B4
